Substitutions are numbered along the chain they refer to.
B1: MUC1 H02: anti-MUC1 monoclonal antibody; VH SEQ ID NO:1, VL SEQ ID NO:4 (antibody, V domains shown)
VH: EVQLVQSGAEVKKPGATVKISCKVSGYTFTDHTMHWIKQRPGKGLEWMGYFYPRDDSTNYNEKFKGRVTLTADKSTDTAYMELSSLRSEDTAVYYCARGLRYALDYWGQGTLVTVSS
VL: EIVLTQSPATLSLSPGERATLSCRASSSVSSSYLYWYQQKPGQAPRLWIIGTSNLASGVPARFSGSGSGTDYTLTISSLEPEDAAVYYCHQYSWSPPTFGQGTKLEIK
B2: MUC1 gB06: anti-MUC1 monoclonal antibody; VH SEQ ID NO:1, VL SEQ ID NO:2 (antibody, V domains shown)
VH: B1 VH
VL: B1 VL with I50Y, S93A
B3: MUC1 G12: anti-MUC1 monoclonal antibody; VH SEQ ID NO:1, VL SEQ ID NO:3 (antibody, V domains shown)
VH: B1 VH
VL: B1 VL with S30G, Y33N, I50Y, G51R, T52S, S53T, N54K, S93R

Experiments:
[1] = analytical size exclusion chromatography (SEC) to determine aggregation; type: physicochemical; conditions: unconjugated antibodies; mobile phase 300 mM NaCl, 25 mM sodium phosphate pH 6.8
Protocol: SEC HPLC: To determine aggregation, samples were analyzed using analytical size exclusion chromatography (SEC; Tosoh #08541) with a mobile phase of 300 mM NaCl, 25 mM sodium phosphate pH 6.8.
Methods. Antibodies (15 mg/mL) bearing one aldehyde tag were conjugated to linker-payloads at 1.1 mM, respectively. Reactions proceeded for 72 h at 37° C. in 20 mM sodium citrate, 50 mM NaCl pH 5.5 (20/50 buffer) containing 0.85-2.5% DMA. After conjugation, free drug was removed using a 30 kD MWCO 0.5 mL Amicon spin concentrator. Samples were added to the spin concentrator, centrifuged at 15,000×g for 7 min, then diluted with 450 μL 20 mM sodium citrate, 50 mM NaCl pH 5.5 and centrifuged again. The process was repeated 10 times. To determine the DAR of the final product, ADCs were examined by analytical chromatography using hydrophobic interaction (HIC) (Tosoh #14947) or PLRP-RP (Agilent PL1912-1802 1000A, 8 μm, 50×2.1 mm) columns. HIC analysis used mobile phase A: 1.5 M ammonium sulfate, 25 mM sodium phosphate pH 7.0, and mobile phase B: 25% isopropanol, 18.75 mM sodium phosphate pH 7.0. […] To determine aggregation, samples were analyzed using analytical size exclusion chromatography (SEC; Tosoh #08541) with a mobile phase of 300 mM NaCl, 25 mM sodium phosphate pH 6.8 with 5% isopropanol.

[2] = target: recombinant 20mer MUC1 glycosylated-biotin (Homo sapiens, UniProt P15941); experiment: MUC1 ELISA; type: binding; conditions: FIGS. 2A-2C
recombinant 20mer MUC1 glycosylated-biotin, sequence (P15941 138-157): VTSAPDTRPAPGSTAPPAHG
Protocol: (§1) MUC1 ELISA: Antigens were coated directly on a Streptavidin (Pierce, 15500) or Maxisorp (VWR, 62409-024) 96-well plate at 100 ng/well in PBS. Coated plates were incubated at 4° C. overnight. The plates were blocked with casein blocking buffer (Thermo Fisher, 37528) and washed with PBS-Tween-20. Antibodies were serially diluted in PBS, added to the coated wells and incubated for 1 h at room temperature with shaking. To test for stickiness, antibodies were also added to uncoated, blocked wells. Peroxidase (HRP)-conjugated anti-Fc secondary (Jackson Immunoresearch, #109-035-098) was used for detection, followed by a […] substrate (Thermo Fisher, 34028) and H2SO4 quench. Absorbance was read at 450 nm on a Molecular Devices plate reader.
(§2) 20mer MUC1 glycosylated-biotin refers to a peptide comprising the sequence […] (SEQ ID NO:26) with Tn (GalNac) antigen or sialyl Tn (Neu5Acα2-6GalNAc) antigen modifications on some of the S/T residues, where biotin in conjugated to the N-terminus. 60mer MUC1 non-glycosylated-biotin refers to a peptide comprising the sequence […] (SEQ ID NO:27), where biotin in conjugated to the N-terminus. Decoy peptide refers to a peptide comprising the sequence […] (SEQ ID NO:28), with Tn (GalNac) antigen or sialyl Tn (Neu5Acα2-6GalNAc) antigen modifications on some of the S/T residues.

[3] = target: recombinant 60mer MUC1 non-glycosylated-biotin (Homo sapiens, UniProt P15941); experiment: MUC1 ELISA; type: binding; conditions: FIGS. 2A-2C
recombinant 60mer MUC1 non-glycosylated-biotin, sequence (P15941 138-197): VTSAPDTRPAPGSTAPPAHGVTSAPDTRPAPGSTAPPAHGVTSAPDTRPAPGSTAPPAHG
Protocol: as §1, §2

decoy peptide = experiment: MUC1 ELISA; type: binding; conditions: FIGS. 2A-2C
decoy peptide, sequence (as listed by the source): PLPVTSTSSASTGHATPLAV
Protocol: as §1, §2

Molecule | monomeric as determined by SEC [1] | binding to recombinant 20mer MUC1 glycosylated-biotin as assessed by ELISA [2] | binding to recombinant 60mer MUC1 non-glycosylated-biotin as assessed by ELISA [3] | binding to decoy peptide as assessed by ELISA (decoy peptide)
B1 | more than 98% | bind | not | not
B2 |  | bind | not | not
B3 |  | bind | not | not

From patent publication US20250152724A1, “ANTIBODY CONJUGATES SPECIFIC FOR MUCIN-1 AND METHODS OF USE THEREOF” (R.P. Scherer Technologies, LLC, priority 2022, published 2025)
